Entries after “also recorded” stand apart in the source; their conditions may differ.
T1: C3a Receptor (Homo sapiens, UniProt Q16581)
T1 sequence (Q16581 1-482 F151C): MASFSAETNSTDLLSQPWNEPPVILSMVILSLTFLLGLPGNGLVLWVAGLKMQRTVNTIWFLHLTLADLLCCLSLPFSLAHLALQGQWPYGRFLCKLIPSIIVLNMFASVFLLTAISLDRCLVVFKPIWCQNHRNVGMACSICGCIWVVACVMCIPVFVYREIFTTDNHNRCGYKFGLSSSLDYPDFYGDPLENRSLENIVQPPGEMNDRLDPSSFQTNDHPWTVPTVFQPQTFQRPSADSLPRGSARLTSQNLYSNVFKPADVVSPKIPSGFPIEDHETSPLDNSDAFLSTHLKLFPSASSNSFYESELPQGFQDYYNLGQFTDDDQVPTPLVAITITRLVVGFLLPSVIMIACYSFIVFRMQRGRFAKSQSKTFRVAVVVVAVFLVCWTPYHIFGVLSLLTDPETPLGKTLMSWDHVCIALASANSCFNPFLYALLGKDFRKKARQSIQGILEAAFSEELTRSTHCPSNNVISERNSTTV


How the values were obtained:
guinea pig ileal tissue = details: C3a and C4a; cited from earlier work
C3a Receptor [1] = biological target: T1, C3a Receptor; assay: Electrophysiological response (Ca2+ mediated chloride currents, two electrode voltage clamp) of Xenopus oocytes injected with C3a Receptor cRNA; format: cell-based; parameters: cDNA encoding a complete orphan GPCR of 482 amino acids; expressed in transfected cells; host or cells: Xenopus laevis oocytes microinjected with cRNA, with or without U937 total RNA; details: for electrophysiological response of oocytes expressing C3a Receptor: oocytes co-injected with C3a Receptor cRNA (10 ng) and U937 RNA (25 ng), ligands 10 nM; for electrophysiological response of oocytes injected with C3a Receptor cRNA or U937 RNA alone: 10 nM ligand
Method: (§1) (A) Electrophysiological response of Xenopus oocytes injected with cRNA for C3a Receptor (10 ng), total U937 RNA (25 ng), or a mixture of C3a Receptor (10 ng) and U937 RNA (25 ng) to 10 nM rC5a, 10 nM C3a analogue peptide, 10 nM platelet activating factor (PAF), 10 nM fMetLeuPhe. Inset, represents typical response of oocytes co-injected with C3a Receptor cRNA+U937 RNA to 10 nM C3a. (B) Electrophysiological response of oocytes injected with C5a-R cRNA (10 ng), U937 RNA (25 ng) or a mixture of C5a-R and U937 RNA, to 10 nM rC5a or 10 nM C3a analogue peptide. […] Calcium mobilization by Fura 2 loaded cells expressing C5a receptor (FIGS. 4A & 4C) or C3a Receptor (FIGS. 4B & 4D) in response to rC5a (10 nM, FIG. 4A or 100 nM, FIG. 4B) or C3a analogue peptide (1 uM, FIGS. 4C & 4D).
Capped cRNA transcripts were generated from linearized C3a Receptor and C5a-R plasmid DNA as previously described (Kumar, C. S., et al (1989) J. Biol. Chem. 264, 17939-17946) and suspended in sterile water at a concentration of 0.2 μg/μl. Ovarian lobes were surgically removed from adult female Xenopus laevis frogs and defolliculated Stage V oocytes were harvested by manual dissection (Smith, L. D., et al (1991) Methods in Cell Biology, 36, 45-54. Edited by B. K. Kay and H. B. Peng, Academic Press Inc., New York.). Oocytes were microinjected with C3a Receptor or C5a-R cRNA transcripts (10 ng/oocyte) with or without U937 total RNA (25 ng/oocyte) in a 50 nl volume using a Drummond microinjection apparatus and maintained in modified Barth's saline (Power, C. A., et al (1995) J. Biol. Chem., 270,19495-19500 ) at 18° C. Electrophysiological recordings from an average of 10 oocytes were made 48 h later at room temperature using the two electrode voltage clamp (Warner Instruments) technique. Membrane potentials were routinely clamped at -60 mV. Results represent average response determined in three separate experiments.
The chemotactic receptors for C5a and the fMLP-R have previously been functionally expressed in Xenopus laevis oocytes (Kroll, B., et al (1991) FEBS Lett. 291, 208-210; Murphy, P. M. & McDermott, D. (1991) J Biol. Chem. 266, 12560-12567; Murphy, P. M., Gallin, E. K., and Tiffany, H. L. (1990) J Immunol. 145, 2227-2234; Schultz, P., et al (1992) Cellular Signalling 4, 153-161) and, unlike all other GPCRs tested in this system, injection of cRNA for the cloned chemotactic receptors alone is insufficient to stimulate signal transduction in response to ligand binding (Kroll, B., et al (1991) FEBS Lett. 291, 208-210; Murphy, P. M. & McDermott, D. (1991) J Biol. Chem. 266, 12560-12567). Functional expression of both of these chemotactic receptors, as monitored by induction of Ca^2+ mediated chloride currents, requires the co-injection of a complimentary human factor which can be supplied by total RNA from myeloid or liver cells (Kroll, B., et al (1991) FEBS Lett. 291, 208-210; Murphy, P. M. & McDermott, D. (1991) J Biol. Chem. 266, 12560-12567). The co-factor is required for receptor-mediated signal transduction but not for expression of the C5a-R or fMLF-R on the surface of the oocytes (Murphy, P. M., et al (1990) J Immunol. 145, 2227-2234). […] Xenopus oocytes were used to functionally characterize C3a Receptor. […] Like the C5a-R and the fMLF-R, the response was dependent on the co-injection of a cofactor present in total HL-60 or U937 RNA. […] (FIG. 3B). Both the C5a-R as well as C3a Receptor elicited in oocytes a promiscuous response to the two anaphylatoxins.

C5a-R = assay: Electrophysiological response (Ca2+ mediated chloride currents, two electrode voltage clamp) of Xenopus oocytes injected with C5a-R cRNA; format: cell-based, human; details: oocytes co-injected with C5a-R cRNA (10 ng) and U937 RNA (25 ng), ligands 10 nM
Method: as §1
Commercially prepared (Clontech, Palo Alto, Calif.) multiple tissue blots containing approximately 2 μg poly-A mRNA per lane were sequentially hybridized with random primer ^32 P-labeled cDNAs spanning the coding regions of C5a-R and C3a Receptor. C5a-R was cloned via PCR from differentiated U937 RNA. Final washing step was carried out twice in 0.5× SSC, 1% SDS at 65° C. for 20 min.
Capped cRNA transcripts were generated from linearized C3a Receptor and C5a-R plasmid DNA as previously described (Kumar, C. S., et al (1989) J. Biol. Chem. 264, 17939-17946) and suspended in sterile water at a concentration of 0.2 μg/μl. […] Results represent average response determined in three separate experiments.
The chemotactic receptors for C5a and the fMLP-R have previously been functionally expressed in Xenopus laevis oocytes (Kroll, B., et al (1991) FEBS Lett. 291, 208-210; Murphy, P. M. & McDermott, D. (1991) J Biol. Chem. 266, 12560-12567; Murphy, P. M., Gallin, E. K., and Tiffany, H. L. (1990) J Immunol. 145, 2227-2234; Schultz, P., et al (1992) Cellular Signalling 4, 153-161) and, unlike all other GPCRs tested in this system, injection of cRNA for the cloned chemotactic receptors alone is insufficient to stimulate signal transduction in response to ligand binding (Kroll, B., et al (1991) FEBS Lett. 291, 208-210; Murphy, P. M. & McDermott, D. (1991) J Biol. Chem. 266, 12560-12567). Functional expression of both of these chemotactic receptors, as monitored by induction of Ca^2+ mediated chloride currents, requires the co-injection of a complimentary human factor which can be supplied by total RNA from myeloid or liver cells (Kroll, B., et al (1991) FEBS Lett. 291, 208-210; Murphy, P. M. & McDermott, D. (1991) J Biol. Chem. 266, 12560-12567). […]

C3a Receptor [2] = biological target: T1, C3a Receptor; assay: C3a binding to HEK 293 cells stably expressing C3a Receptor mRNA; parameters: cDNA encoding a complete orphan GPCR of 482 amino acids; expressed in transfected cells; details: data not shown
Text: C3a was radioiodinated and used in whole cell binding assays to further characterize C3a Receptor. […] Curiously, HEK 293 cells stably expressing C3a Receptor mRNA by Northern Blot, neither bound nor responded to C3a (data not shown).

Molecule	cross desensitization of guinea pig ileal tissue (guinea pig ileal tissue)	electrophysiological response of oocytes expressing C3a Receptor (C3a Receptor [1])	electrophysiological response of oocytes expressing C3a Receptor (C3a Receptor [1]; listed as native ligand)	electrophysiological response of oocytes expressing C5a-R (C5a-R)	electrophysiological response of oocytes expressing C5a-R (C5a-R; listed as native ligand)	binding of C3a to HEK 293 cells expressing C3a Receptor mRNA (C3a Receptor [2])	electrophysiological response of oocytes injected with C3a Receptor cRNA or U937 RNA alone (C3a Receptor [1])	electrophysiological response of oocytes expressing C3a Receptor (C3a Receptor [1]; listed as C3a carboxy-terminal analog synthetic peptide)	electrophysiological response of oocytes expressing C3a Receptor (C3a Receptor [1]; listed as C5a)	electrophysiological response of oocytes expressing C5a-R (C5a-R; listed as C5a)
C3a: C3a was purchased from Advanced Research Technologies, San Diego; anaphylatoxin; radioiodinated for binding	cross desensitize	respond	elicited similar responses	smaller response; also recorded: respond	elicited similar responses	neither bound				
WWGKKYRASKLGLAR [C3a analogue synthetic peptide, reference compound]		respond					did not elicit any response	elicited an electrophysiological response		
rC5a: Human rC5a was expressed in E. coli and purified to homogeneity (protein, UniProt P01031 678-751, looked up, C5a anaphylatoxin recombinant, E. coli, Human rC5a was expressed in E. coli and purified to homogeneity) C5a anaphylatoxin: TLQKKIEEIAAKYKHSVVKKCCYDGACVNNDETCEQRAARISLGPRCIKAFTECCVVASQLRANISHKDMQLGR				induced rapid activation of chloride currents			did not elicit any response		respond	respond
